Biological target: Pf12 (His26 to Ser321) (Plasmodium falciparum) (UniProt C6KSX0)
Test: ITC; Pf12 10 μM in the sample cell; full length Pf41 or Pf41ΔID 100 μM added in 16 injections of 2.4 μL, 180 s apart; 25°C; one-site model; single experiment representative of two

## Pf41 full length (mature, Lys21 to Ser378) (from UniProt Q8I1Y0 21-378) (natural protein)
  Kd: 27.7 nM
  dH: -33.9 kcal/mol
  stoichiometry N: 0.85 Pf41:Pf12

From PMC4587554
